The values that follow come from patent US20070014785A1.

The target of the assay is human CD20 (entire coding sequence, expressed on the cell surface after LTR-CD20-LTR retroviral transduction) (human) (UniProt P11836). The assay is described as follows: cell-based or functional assay.
Chain of UniProt P11836 (P11836 whole entry): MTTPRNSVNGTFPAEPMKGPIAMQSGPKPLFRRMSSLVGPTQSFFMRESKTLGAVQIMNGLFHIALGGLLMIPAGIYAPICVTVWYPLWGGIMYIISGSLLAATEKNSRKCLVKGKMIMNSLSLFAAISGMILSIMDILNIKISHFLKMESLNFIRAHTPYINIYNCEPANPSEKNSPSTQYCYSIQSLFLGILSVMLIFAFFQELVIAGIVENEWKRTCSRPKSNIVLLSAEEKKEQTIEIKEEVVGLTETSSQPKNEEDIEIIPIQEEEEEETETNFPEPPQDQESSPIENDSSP

Take “Rituximab (Roche), humanised monoclonal antibody against CD20”: the % specific lysis, Rituximab alone (Donor 1, 30% CD3/CD20+ lymphocytes) was 0%; the % specific lysis, Rituximab alone (Donor 2, 23% CD3/CD20+ lymphocytes) is 0%; the % specific lysis, Rituximab alone (Donor 3, 15% CD3/CD20+ lymphocytes) amounted to 0%; the % specific lysis, Rituximab plus complement (Donor 1, 30% CD3/CD20+ lymphocytes) was determined as 33%. Besides, the % specific lysis, Rituximab plus complement (Donor 2, 23% CD3/CD20+ lymphocytes) was found to be 35%; the % specific lysis, Rituximab plus complement (Donor 3, 15% CD3/CD20+ lymphocytes) was determined as 18%; the death of the CD3/CD20+ cells after one hour exposure (complement-dependent cytotoxicity) came to 90%.
